Results: the supplement of paper PMC7877785
± gives the uncertainty stated by the source.

Experiment: self-splicing fitness, log relative to wild type (ln ratio); higher = more splicing; Tetrahymena group I intron in knt gene, E. coli kanamycin selection, DiMSum; sequences stand for … in CUCUCU…GGAGGGAAAAGUUAUCAGGCAUGCACCUGGUAGCUAGUCUUUAAACCAAUAGAUUGCAUCGGUUUAAAAGGCAAGACCGUCAAAUUGCGGGAAAGGGGUCAACAGCCGUUCAGUACCAAGUCUCAGGGGAAACUUUGAGAUGGCCUUGCAAAGGGUAUGGUAAUAAGCUGACGGACAUGGUCCUAACCACGCAGCCAAGUCCUAAGUCAACAGAUCUUCUGUUGAUAUGGAUGCAGUUCACAGACUAAAUGUCGGUCGGGGAAGAUGUAUUCUUCUCAUAAGAUAUAGUCGGACCUCUCCUUAAUGGGAGCUAGCGGAUGAAGUGAUGCAACACUGGAGCCGCUGGGAACUAAUUUGUAUGCGAAAGUAUAUUGAUUAGUUUUGGAGUACUCGUGGUCG
Method in brief: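 The eight P1ex-region nucleotides of an intron in the knt kanamycin-resistance gene on pET-22b(+) were all randomised and the library put into E. coli BL21(DE3). Six replicate transformations were grown overnight at 37°C or 30°C on LB agar with or without 25 μg/mL kanamycin, together with 100 μg/mL carbenicillin, 50 μM IPTG and 0.2% rhamnose. Colonies were pooled and amplicon-sequenced on an Illumina HiSeq 2500. Fitness from DiMSum is the error-weighted combination of wild-type-normalised replicate fold changes, kanamycin over none.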

Row | Sequence | self-splicing fitness (ln) (30 °C) | self-splicing fitness (ln) (37 °C)
1 | AGCUAGCAAUAUUACGCGAA | -3.09 ± 0.23 | -1.24 ± 0.22
2 | CGGAAGCAAUAUUACGCUAU | -3.66 ± 0.25 | -2.13 ± 0.2
3 | GCCGAGCAAUAUUACGCUCU | -0.992 ± 0.2 | -0.494 ± 0.21
4 | AUAGAGCAAUAUUACGAAUG | -3.68 ± 0.19 | -1.96 ± 0.17
5 | CAGAAGCAAUAUUACGAUUA | -2.93 ± 0.17 | -1.51 ± 0.12
6 | ACGCAGCAAUAUUACGGUUC | -3.63 ± 0.22 | -1.89 ± 0.15
7 | GAUUAGCAAUAUUACGUCAC | -2.91 ± 0.28 | -2.2 ± 0.37
8 | GUAUAGCAAUAUUACGAUCA | -1.33 ± 0.2 | -0.768 ± 0.16
9 | GAACAGCAAUAUUACGACAC | -0.422 ± 0.08 | 0.0163 ± 0.1
10 | GAGAAGCAAUAUUACGAUUU | -0.24 ± 0.081 | 0.493 ± 0.087
11 | UAUAAGCAAUAUUACGAUGA | -0.333 ± 0.1 | 0.344 ± 0.13
12 | AAUGAGCAAUAUUACGCCCG | -2.18 ± 0.43 | -1.76 ± 0.42
13 | ACCAAGCAAUAUUACGAUGU | -1.7 ± 0.057 | -1.03 ± 0.073
14 | AGACAGCAAUAUUACGUGCU | -3.14 ± 0.12 | -1.56 ± 0.085
15 | CAUAAGCAAUAUUACGAUUG | -2.62 ± 0.095 | -1.27 ± 0.11
16 | AGAGAGCAAUAUUACGUCCC | -2.37 ± 0.33 | -1.25 ± 0.37
17 | CAUGAGCAAUAUUACGCUAU | -3.46 ± 0.3 | -1.99 ± 0.21
18 | CUGCAGCAAUAUUACGAGUC | -3.68 ± 0.23 | -2.59 ± 0.41
19 | CAUAAGCAAUAUUACGAGGA | -3.13 ± 0.18 | -2.23 ± 0.21
20 | AAUGAGCAAUAUUACGUAUG | – | -2.92 ± 0.28
21 | GAUAAGCAAUAUUACGGAGG | -1.43 ± 0.13 | -2.92 ± 0.29
22 | AGAUAGCAAUAUUACGCUGG | -3.38 ± 0.34 | -1.56 ± 0.25
23 | GCCUAGCAAUAUUACGAUCU | -2.18 ± 0.079 | -0.334 ± 0.071
24 | GGACAGCAAUAUUACGCUUC | -1.74 ± 0.19 | –
25 | GUGUAGCAAUAUUACGGCGU | -1.42 ± 0.11 | -1.04 ± 0.12
26 | CCCGAGCAAUAUUACGACAU | -3.865 ± 0.026 | -2.88 ± 0.041

Row | Sequence | self-splicing fitness (ln) (30 °C) | self-splicing fitness (ln) (37 °C)
27 | CAUAAGCAAUAUUACGGGGU | -4.17 ± 0.19 | -2.46 ± 0.15
28 | AGCUAGCAAUAUUACGCCGG | -2.94 ± 0.2 | -1.85 ± 0.34
29 | CCACAGCAAUAUUACGUACG | -0.647 ± 0.047 | -0.02 ± 0.063
30 | GACGAGCAAUAUUACGCACU | -1.32 ± 0.15 | -0.506 ± 0.16
31 | UAGCAGCAAUAUUACGACAG | -0.896 ± 0.1 | -0.68 ± 0.13
32 | AUUUAGCAAUAUUACGGCAC | -0.95 ± 0.27 | –
33 | AUCAAGCAAUAUUACGGUGG | -3.54 ± 0.19 | -2.63 ± 0.2
34 | CGCGAGCAAUAUUACGAAAU | – | -2.57 ± 0.27
35 | AGGCAGCAAUAUUACGUCAC | -1.74 ± 0.13 | -1.25 ± 0.28
36 | UCGCAGCAAUAUUACGAUCA | -1.27 ± 0.15 | -1.18 ± 0.15
37 | GGACAGCAAUAUUACGUAGU | -1.61 ± 0.059 | -1.15 ± 0.085
38 | GAGUAGCAAUAUUACGGAAU | -2.46 ± 0.31 | -1.32 ± 0.23
39 | CGGCAGCAAUAUUACGUCCA | -0.34 ± 0.1 | -0.521 ± 0.14
40 | UCAUAGCAAUAUUACGCUAC | -2.17 ± 0.21 | -3.42 ± 0.29
41 | GUUGAGCAAUAUUACGUGAU | -2.14 ± 0.19 | -1.6 ± 0.27
42 | CCGCAGCAAUAUUACGCAUG | -2.91 ± 0.1 | -0.661 ± 0.076
43 | GCCUAGCAAUAUUACGCCAA | -2.38 ± 0.32 | -3.18 ± 0.29
44 | CAAUAGCAAUAUUACGAGAG | -3.64 ± 0.23 | -1.52 ± 0.12
45 | AUCUAGCAAUAUUACGGAUU | -4.46 ± 0.32 | -2.38 ± 0.23
46 | CGGCAGCAAUAUUACGUGAU | -3.11 ± 0.12 | -1.57 ± 0.13
47 | AUCAAGCAAUAUUACGUUGG | -2.7 ± 0.13 | -2.25 ± 0.16
48 | GACCAGCAAUAUUACGCUAG | -1.29 ± 0.087 | -0.88 ± 0.1
49 | CAUUAGCAAUAUUACGUCUU | -3.25 ± 0.27 | -2.33 ± 0.21
50 | CAAGAGCAAUAUUACGAAGC | -3.5 ± 0.23 | -2.86 ± 0.24
51 | ACAUAGCAAUAUUACGAGCA | -2.89 ± 0.12 | -1.1 ± 0.11
52 | AAGAAGCAAUAUUACGUGGG | -2.71 ± 0.13 | -2.57 ± 0.14

Row | Sequence | self-splicing fitness (ln) (30 °C) | self-splicing fitness (ln) (37 °C)
53 | ACGAAGCAAUAUUACGCGUC | -3.76 ± 0.21 | -1.91 ± 0.19
54 | CUGAAGCAAUAUUACGCCGG | -1.86 ± 0.25 | -1.19 ± 0.25
55 | CACCAGCAAUAUUACGGACC | -2.62 ± 0.21 | -1.72 ± 0.21
56 | AUACAGCAAUAUUACGGUAC | -4.13 ± 0.3 | -2.2 ± 0.18
57 | AGUUAGCAAUAUUACGCCAU | -3.41 ± 0.21 | -1.53 ± 0.14
58 | GCUUAGCAAUAUUACGAUAC | -1.65 ± 0.2 | 0.185 ± 0.23
59 | CAUCAGCAAUAUUACGUCCA | -1.71 ± 0.12 | -2.92 ± 0.22
60 | AAGCAGCAAUAUUACGAGGG | -2.45 ± 0.14 | -2.28 ± 0.2
61 | AAAUAGCAAUAUUACGUGAU | -2.26 ± 0.099 | -1.89 ± 0.11
62 | UACAAGCAAUAUUACGCGCG | -0.759 ± 0.088 | 0.0647 ± 0.1
63 | AUGAAGCAAUAUUACGGUUC | -1.29 ± 0.099 | -1.8 ± 0.15
64 | CGGAAGCAAUAUUACGGCUG | -1.79 ± 0.094 | -1.36 ± 0.099
65 | GGCUAGCAAUAUUACGCUAU | -1.3 ± 0.11 | 0.0903 ± 0.12
66 | GGUAAGCAAUAUUACGAGGA | – | -1.84 ± 0.45
67 | AAUAAGCAAUAUUACGCCGA | -0.856 ± 0.14 | -0.632 ± 0.16
68 | UCAAAGCAAUAUUACGACCA | -1.97 ± 0.22 | -1.4 ± 0.23
69 | GCCUAGCAAUAUUACGCAAC | -1.78 ± 0.14 | -1.21 ± 0.13
70 | CGUAAGCAAUAUUACGCAGU | -3.05 ± 0.2 | -2.64 ± 0.34
71 | GCUAAGCAAUAUUACGCCUA | -1.55 ± 0.3 | -0.198 ± 0.2
72 | AAGUAGCAAUAUUACGGUCU | -0.291 ± 0.062 | -0.0526 ± 0.086
73 | CCUGAGCAAUAUUACGUUUC | -3.69 ± 0.25 | -2.81 ± 0.28
74 | CGCAAGCAAUAUUACGCUGC | -2.59 ± 0.33 | -2.41 ± 0.3
75 | AUUGAGCAAUAUUACGCUAG | – | -2.2 ± 0.22
76 | AUGGAGCAAUAUUACGCGAG | -2.22 ± 0.3 | –
77 | CCAUAGCAAUAUUACGGUAG | -2.01 ± 0.1 | -0.787 ± 0.11
78 | UGCUAGCAAUAUUACGCUGG | -3.07 ± 0.23 | -2.25 ± 0.32
